From patent US11802878B2, “Protein sequencing method and reagents” (The Governing Council of the University of Toronto, priority 2009, dated 2023)

Columns and labels:
[1] = system: immobilized biotinylated peptide, N-terminal amino acid C (X-SDGMFTAGSLIGK(biotin)); assay: Phage ELISA, binding to immobilized peptide, N-terminal C
Experimental: (§1) Given the discovery that the specificity pocket library was functionally robust, selections against synthetic peptide ligands were carried out using this library. The specificity pocket library was selected against 20 biotinylated peptides, each with a different N-terminal residue atop a common leader sequence (X-SDGMFTAGSLIGK(biotin)) (SEQ ID NO: 4). The peptides were immobilized individually to the bottom wells of a microtiter plate. […] Consequently, ClpS mutant variants that prefer other residues in addition to the ligand ‘bait’ would bind those competing peptides in solution and simply be washed away. Only selective variants that bound to the immobilized target(s) were amplified during each subsequent round of selection.
(§2) To evaluate the specificity and selectivity of individual clones, both wild-type ClpS and the selected variants' binding to each of the biotinylated peptides independently were tested. The same approach was also used to monitor the progress of the selections and to prioritize particular pools of phage for further investigation.
(§3) Promising single clones were picked from the selection pools and their specificity was evaluated using the same panel of biotinylated peptides and various amounts of phage supernatant. […] Accordingly, Variant 1 represents a selective N-terminal amino acid capture probe for tryptophan useful for the sequencing methods described herein. Variant 1 also represents a useful scaffold for performing further generation and selection of variants with desirable properties for use as additional N-terminal amino acid capture probes.
(§4) The selection and ELISA protocols are very similar. Briefly, each well of a 96-well Maxisorp plate was coated overnight at 4° C. with 100 μl of 10 μg/ml neutravidin in PBS, or 1:500 dilution of anti-FLAG antibody. […]
(§5) For the ELISA readouts, 100 μl of pH adjusted phage supernatant or polyethylene glycol (PEG) precipitated concentrated phage was added to appropriate wells and allowed to bind for 1 hour at 4° C. […] The reaction was stopped by addition of 90 μl of 1M H3PO4 and the absorbance at A450 nm was read.

[2] = system: immobilized biotinylated peptide, N-terminal amino acid D (X-SDGMFTAGSLIGK(biotin)); assay: Phage ELISA, binding to immobilized peptide, N-terminal D
Experimental: as §1, §2, §3, §4, §5

[3] = system: immobilized biotinylated peptide, N-terminal amino acid K (X-SDGMFTAGSLIGK(biotin)); assay: Phage ELISA, binding to immobilized peptide, N-terminal K
Experimental: as §1, §2, §3, §4, §5

[4] = system: immobilized biotinylated peptide, N-terminal amino acid M (X-SDGMFTAGSLIGK(biotin)); assay: Phage ELISA, binding to immobilized peptide, N-terminal M
Experimental: as §1, §2, §3, §4, §5

[5] = system: immobilized biotinylated peptide, N-terminal amino acid N (X-SDGMFTAGSLIGK(biotin)); assay: Phage ELISA, binding to immobilized peptide, N-terminal N
Experimental: as §1, §2, §3, §4, §5

[6] = system: immobilized biotinylated peptide, N-terminal amino acid P (X-SDGMFTAGSLIGK(biotin)); assay: Phage ELISA, binding to immobilized peptide, N-terminal P
Experimental: as §1, §2, §3, §4, §5

[7] = system: immobilized biotinylated peptide, N-terminal amino acid Q (X-SDGMFTAGSLIGK(biotin)); assay: Phage ELISA, binding to immobilized peptide, N-terminal Q
Experimental: as §1, §2, §3, §4, §5

[8] = system: immobilized biotinylated peptide, N-terminal amino acid S (X-SDGMFTAGSLIGK(biotin)); assay: Phage ELISA, binding to immobilized peptide, N-terminal S
Experimental: as §1, §2, §3, §4, §5

[9] = system: immobilized biotinylated peptide, N-terminal amino acid T (X-SDGMFTAGSLIGK(biotin)); assay: Phage ELISA, binding to immobilized peptide, N-terminal T
Experimental: as §1, §2, §3, §4, §5

[10] = system: immobilized biotinylated peptide, N-terminal amino acid V (X-SDGMFTAGSLIGK(biotin)); assay: Phage ELISA, binding to immobilized peptide, N-terminal V
Experimental: as §1, §2, §3, §4, §5

[11] = system: immobilized biotinylated peptide, N-terminal amino acid W (X-SDGMFTAGSLIGK(biotin)); assay: Phage ELISA, binding to immobilized peptide, N-terminal W
Experimental: as §1, §2, §3, §4, §5

[12] = system: immobilized biotinylated peptide, N-terminal amino acid Y (X-SDGMFTAGSLIGK(biotin)); assay: Phage ELISA, binding to immobilized peptide, N-terminal Y
Experimental: as §1, §2, §3, §4, §5

[13] = system: immobilized biotinylated peptide, N-terminal amino acid L (X-SDGMFTAGSLIGK(biotin)); assay: Phage ELISA, binding to immobilized peptide, N-terminal L
Experimental: as §1, §2, §3, §4, §5

[14] = system: Leu-peptides; assay: Phage binding to immobilized peptides or control peptides, ELISA (FIG. 6B); settings: negative controls BSA, SA, NA
From the text: Selected peptide ligands during were synthesized with C-terminal biotin-lysine residues. The biotinylated peptides were immobilized on neutravidin-coated wells of a microtiter plate by passive adsorption, alongside additional control proteins.
The ClpS domains were N-terminally FLAG-tagged as shown in FIG. 6A so that display of the recombinant phage coat protein would be detectable (using commercial anti-FLAG antibody), even if the domains were not able to bind ligand. […] The expressed proteins also contained an ST2 secretion signal that is cleaved off and a C-terminal phage coat protein p3 (that is, fused to the C-terminus/residue 106 of E. coli ClpS) as shown in FIG. 6C.
as §4, with “antibody. Plates were washed three times with PBS+0.50% TWEEN-20 (PT) and blocked for 1 hour at room temperature with 200 ul of PBS+0.5% BSA (PB). Plates were washed again three times with PT.” for “antibody.”
as §5

[15] = biological target: Leu-peptide; settings: reported value, wildtype ClpS:Leu-peptide interaction; read-out: dissociation constant (Kd); cited from earlier work
[16] = system: leucine, phenylalanine, tyrosine and tryptophan N-termini; settings: Schuenemann et al. 2009; Tasaki et al. 2009; cited from earlier work

B1: ClpS WT: truncated wildtype E. coli ClpS polypeptide, 84 amino acids, SEQ ID NO: 1, displayed on phage (protein, listed as Escherichia coli)
chain: KPPSMYKVILVNDDYTPMEFVIDVLQKFFSYDVERATQLMLAVHYQGKAICGVFTAEVAETKVAMVNKYARENEHPLLCTLEKA
modifications: phage display
- phage ELISA binding signal ([1]; N-terminal C, phage 10X, sub Fab): −0.23
- phage ELISA binding signal ([1]; N-terminal amino acid C, Table 1): −0.23
- phage ELISA binding signal ([2]; N-terminal D, phage 10X, sub Fab): −0.29
- phage ELISA binding signal ([2]; N-terminal amino acid D, Table 1): −0.29
- phage ELISA binding signal ([3]; N-terminal K, phage 10X, sub Fab): 0.05
- phage ELISA binding signal ([3]; N-terminal amino acid K, Table 1): 0.05
- phage ELISA binding signal ([4]; N-terminal M, phage 10X, sub Fab): −0.11
- phage ELISA binding signal ([4]; N-terminal amino acid M, Table 1): −0.11
- phage ELISA binding signal ([5]; N-terminal N, phage 10X, sub Fab): −0.05
- phage ELISA binding signal ([5]; N-terminal amino acid N, Table 1): −0.05
- phage ELISA binding signal ([6]; N-terminal P, phage 10X, sub Fab): −0.07
- phage ELISA binding signal ([6]; N-terminal amino acid P, Table 1): −0.07
- phage ELISA binding signal ([7]; N-terminal Q, phage 10X, sub Fab): −0.18
- phage ELISA binding signal ([7]; N-terminal amino acid Q, Table 1): −0.18
- phage ELISA binding signal ([8]; N-terminal S, phage 10X, sub Fab): −0.01
- phage ELISA binding signal ([8]; N-terminal amino acid S, Table 1): −0.01
- phage ELISA binding signal ([9]; N-terminal T, phage 10X, sub Fab): 0.01
- phage ELISA binding signal ([9]; N-terminal amino acid T, Table 1): 0.01
- phage ELISA binding signal ([10]; N-terminal V, phage 10X, sub Fab): −0.09
- phage ELISA binding signal ([10]; N-terminal amino acid V, Table 1): −0.09
- phage ELISA binding signal ([11]; N-terminal W, phage 10X, sub Fab): 0.77
- phage ELISA binding signal ([11]; N-terminal amino acid W, Table 1): 0.77
- phage ELISA binding signal ([12]; N-terminal Y, phage 10X, sub Fab): 1.08
- phage ELISA binding signal ([12]; N-terminal amino acid Y, Table 1): 1.08
- phage ELISA binding signal ([13]; N-terminal L, phage 10X, sub Fab): 1.57
- phage ELISA binding signal ([13]; N-terminal amino acid L, Table 1): 1.57
- binding of phage-displayed ClpS to immobilized peptides ([14]; listed as ClpS from E. coli): binds two of the Leu-peptides specifically, without cross reactivity to any of the negative controls
- binding of phage-displayed ClpS to immobilized peptides ([14]; listed as ClpS from Escherichia coli): able to bind its cognate ligand (immobilized Leucine)
- Kd [15]: 4.8 µM
- affinities [16]: single-digit micromolar to nanomolar
